# Data from IntAct's records for PubMed 26586190.
# B1: Sestrin-2 (Homo sapiens), P58004 (parent)
# chain: MIVADSECRAELKDYLRFAPGGVGDSGPGEEQRESRARRGPRGPSAFIPVEEVLREGAESLEQHLGLEALMSSGRVDNLAVVMGLHPDYFTSFWRLHYLLLHTDGPLASSWRHYIAIMAAARHQCSYLVGSHMAEFLQTGGDPEWLLGLHRAPEKLRKLSEINKLLAHRPWLITKEHIQALLKTGEHTWSLAELIQALVLLTHCHSLSSFVFGCGILPEGDADGSPAPQAPTPPSEQSSPPSRDPLNNSGGFESARDVEALMERMQQLQESLLRDEGTSQEEMESRFELEKSESLLVTPSADILEPSPHPDMLCFVEDPTFGYEDFTRRGAQAPPTFRAQDYTWEDHGYSLIQRLYPEGGQLLDEKFQAAYSLTYNTIAMHSGVDTSVLRRAIWNYIHCVFGIRYDDYDYGEVNQLLERNLKVYIKTVACYPEKTTRRMYNLFWRHFRHSEKVHVNLLLLEARMQAALLYALRAITRYMT
# partner: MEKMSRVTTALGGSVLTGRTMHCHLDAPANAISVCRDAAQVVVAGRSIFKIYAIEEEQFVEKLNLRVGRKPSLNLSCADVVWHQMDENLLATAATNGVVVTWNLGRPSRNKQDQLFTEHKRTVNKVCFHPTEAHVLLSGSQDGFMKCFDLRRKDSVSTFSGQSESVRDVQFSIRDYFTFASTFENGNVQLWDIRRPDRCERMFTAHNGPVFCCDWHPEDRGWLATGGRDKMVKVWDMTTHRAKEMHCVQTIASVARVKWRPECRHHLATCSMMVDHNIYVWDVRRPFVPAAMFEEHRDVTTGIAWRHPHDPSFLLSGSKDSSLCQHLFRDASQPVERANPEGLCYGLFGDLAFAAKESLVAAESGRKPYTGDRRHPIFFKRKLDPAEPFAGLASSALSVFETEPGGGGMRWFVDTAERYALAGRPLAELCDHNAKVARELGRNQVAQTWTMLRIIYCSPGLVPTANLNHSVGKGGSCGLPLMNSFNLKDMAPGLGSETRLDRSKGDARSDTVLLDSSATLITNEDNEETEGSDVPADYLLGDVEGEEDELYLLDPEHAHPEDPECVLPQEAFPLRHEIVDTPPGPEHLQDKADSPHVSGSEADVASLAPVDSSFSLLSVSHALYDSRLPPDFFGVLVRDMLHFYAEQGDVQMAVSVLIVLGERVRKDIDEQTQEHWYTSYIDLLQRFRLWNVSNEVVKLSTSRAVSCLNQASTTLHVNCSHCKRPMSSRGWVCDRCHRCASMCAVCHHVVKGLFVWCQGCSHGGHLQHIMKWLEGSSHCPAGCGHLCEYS
# Variants of: B1
# Settings: with wdr24_human WDR24, Q96S15
row,Variant,effect of a mutation on the interaction
1,D406A;D407A,disrupting interaction strength
